Reference: the supplement of paper PMC10567573

B1: RAB11B (parent)
chain: AVPTDEARAFAEKNNLSFIETSAL
B2: ZNF649 (parent)
chain: DECEKAYFYMSCLVKHKRIHSREK

Variants of: B1
Experiment: protein stability index of a GFP-peptide fusion (GPS, HEK-293T) (PSI 1-6); higher = more stable
Settings: c terminus: a fixed tail appended
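Further: lentivirally expressed fusions sorted by FACS into six bins by GFP to DsRed ratio, PSI derived from sequencing read proportions per bin multiplied by bin number.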

Protein stability index: each site, then its substitutions
E20: P 3.17, A 2.88, R 3.02, N 1.74, Y 2.31, M 2.05, W 1.32, C 2.28, Q 3.35, D 2.92, T 2.44, L 2.15, K 3.13
A9: K 1.91, Q 3.14, Y 2.48, M 2.79, G 2.85, L 2.98, F 2.63
A23: K 3.28, V 1.75, F 2.14, H 2.62, G 3.96, P 2.86, M 2.3
L16: V 4.29, G 4.3, Y 3.18, S 4.37, D 4.52, P 4.47, T 4.57, W 3.25, Q 4, A 3.8, C 4.1
P3: N 3.27, L 2.28, E 3.33, C 2.77, V 3.05, T 3.17, K 2.44, I 2.63, F 1.96, Y 2.55, W 2.91, M 2.43, G 2.92
K13: T 2.63, S 2.48, C 2.47, F 2.49, V 2.13, D 3.24, Q 2.84, M 2.09
T4: K 2, W 2.21, E 3.23, S 2.6, D 3.63, N 2.65, G 3.17, I 2.77, A 2.45, R 1.77, Y 2.37, M 1.98
R8: T 2.67, E 3.31, W 2.94, K 3.08, N 3.06, P 2.65, H 2.99, S 2.46, M 2.45, F 2.69
L24: S 4.25, C 3.38, P 4.55, I 3.5, G 4.49, V 3.57, W 2.47, Q 3.98, R 2.8, H 4.29
N14: F 2.25, E 4.35, C 2.18, R 2.27, D 3.96
I19: E 4.59, W 3.62, F 4.37, T 4.11, D 4.99, L 3.25, R 4.54, C 4.34, K 4.79, Q 4.38
E6: C 2.46, P 2.93, R 1.86, Y 1.67, D 2.95, N 2.25, F 1.66
V2: N 3.85, Q 2.34, A 2.55, H 3.86, I 2.74
F18: Q 4.18, P 4.88, K 4.67, G 4.47, L 3.53, H 4.51, D 5.17, M 4.1, T 4.97, A 4.78
A1: K 2.57, G 3.06, F 2.66, L 2.67, E 3.65, Y 2.69, V 2.62, D 2.95, T 2.74, R 2.26
S17: I 2.89, T 2.93, G 3.7, M 3.1, F 2.59, C 3, W 2.64, E 4.62, D 3.48, Q 4.23
A7: R 2.6, K 2.5, P 2.86, G 3.14, E 2.92, M 2.27, F 1.98, D 4.09, S 2.79
A11: H 2.3, F 2.69, E 3.69, Q 2.85, M 2.8, Y 2.15, D 3.88, V 2.3, K 2.19
F10: I 3.33, W 2.34, M 2.9, N 3.25, A 3.38, S 3.28, K 2.89, T 3.78, V 3.41, L 3.19, H 3.74
D5: L 2.46, C 2.82, M 2.07, S 2.33, K 1.41, I 2.15, P 1.89, W 1.38, G 2.31, A 2.31
E12: G 2.16, A 2.89, W 1.6, T 2.61, Q 2.52, I 1.99, R 2.15, P 2.34, C 1.91, S 2.08
T21: R 3.42, K 3.65, V 1.52, F 2.34, N 2.86, Y 2, C 2.85, D 4.39, H 3.06, W 2.76
S22: C 3.36, A 2.71, E 4.06, P 4.02, V 3.19, K 3.69, I 2.49, T 2.98, W 2.91, H 2.74

Variants of: B2
Experiment: as above
Settings: c terminus: a fixed tail appended

Protein stability index: each site, then its substitutions
R18: L 1.73, D 2.87, N 3.21, K 2.79, Y 2.52, M 2.53
R22: N 2.82, Y 2.16, S 2.08, H 2.39, A 2.54
M10: W 2.36, K 3.74, E 3.92, F 2.33, G 2.56, V 2.38, L 2.19
K15: C 2.41
Y9: F 2.66, A 3.71, Q 3, T 3.94, L 2.35
A6: D 3.52, G 2.75
E23: C 3.15, Y 2.17
C12: H 3.12, I 1.64, D 4.16, S 3.68, M 2.95, R 2.96
E2: F 2.82, A 2.17, H 2.03, I 1.71, S 1.72
K5: H 2.79, N 2.84, S 2.44
D1: Q 2.44, T 2.9, L 1.98, I 1.98, R 2.03, Y 2.17, G 1.92, S 2.81
C3: S 2.53, W 1.97, E 3.97
K24: P 2.46, V 2.05, Q 2.56
L13: F 3.18, I 2.29, W 3.19, S 2.79, A 3.07
V14: F 1.78, D 3.73, P 3.27, A 2.88, Q 3.05, N 3.53
S21: L 2.14, E 2.85, G 2.29, K 2.77, D 2.61, F 1.91
K17: T 2.27, R 2.39, W 2, E 2.54, S 2.19, F 2.83
E4: G 1.76, N 2, D 2.83, W 1.99, I 2.17, R 2.33, C 2.01
F8: Q 3.75, P 4.1, I 2.67, A 3.44, S 3.78
I19: C 3.2, M 2.66, F 2.53, H 3.15, V 3.18, R 3.19, D 3.59
H20: W 2.4, M 2.1, N 2.57, A 2.22, G 2.55, S 2.37
H16: G 3.24, T 2.56
Y7: E 3.7, Q 3.99, L 2.26, C 3.25, M 2.19, G 3.38
S11: I 1.76, Q 3.03, W 1.33, T 2.94, R 2.47
